Changes are numbered by the printed parent chain. Names and notes keep the numbering of the source.
Key:
[1] = molecular target: GFP10-RhoB (wild-type RhoB fused to GFP10); assay: cell-based or functional assay
[2] = molecular target: Ras binding domain of c-Raf (RsBD)-GFP11; assay: tripartite split-GFP complementation in GFP1-9 cells, flow cytometry
[3] = molecular target: reconstituted split-GFP (positive cells: 10-R-11, 10-Zipper-11, 10-zipper/zipper-11 with GFP1-9); assay: cell-based or functional assay
[4] = molecular target: T1, Rho-binding domain of Rhotekin (RBD)-GFP11; assay: tripartite split-GFP complementation in GFP1-9 cells, flow cytometry
T1 construct: also called RBD-11
T1 chain: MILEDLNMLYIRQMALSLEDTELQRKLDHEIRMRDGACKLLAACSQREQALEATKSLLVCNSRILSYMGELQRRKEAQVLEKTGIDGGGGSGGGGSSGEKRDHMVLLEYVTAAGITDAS

[5] = molecular target: T1, Rho-binding domain of Rhotekin …; assay: tripartite split-GFP complementation in GFP1-9 cells, fluorescence microscopy

cell-permeant recombinant TAT-C3 exoenzyme (from UniProt P15879 41-251)
inhibition of RhoB activation (split-GFP fluorescence) [1]: > 10 µg/mL

GFP10-H-Ras G12V (dominant positive, GTP-bound variant)
induction ratio of split-GFP fluorescence against GDP-bound (S17N) H-Ras [2]: 3 fold

B1: Myc-VHH anti-GFP nanobody (VHH)
VHH: QVQLVESGGALVQPGGSLRLSCAASGFPVNRYSMRWYRQAPGKEREWVAGMSSAGDRSSYEDSVKGRFTISRDDARNTVYLQMNSLKPEDTAVYYCNVNVGFEYWGQGTQVTVSS
mean fluorescence intensity of the positive cells [3]: 4 fold

B2: GFP10-RhoB Q63L (constitutively active, dominant positive variant) (other)
chain: MGDLPDDHYLSTQTILSKDLNIDGGGGSGGGGSSGAAIRKKLVVVGDGACGKTCLLIVFSKDEFPEVYVPTVFENYVADIEVDGKQVELALWDTAGLEDYDRLRPLSYPDTDVILMCFSVDSPDSLENIPEKWVPEVKHFCPNVPIILVANKKDLRSDEHVRTELARMKQEPVRTDDGRAMAVRIQAYDYLECSAKTKEGVREVFETATRAALQKRYGSQNGCINCCKVL
notes: also called GFP10-Rho active mutant (Q63L)
fold induction of split-GFP fluorescence against the inactive variant (T19N) [4]: 5 fold

B3: GFP10-RhoB T19N (dominant negative variant) (other)
chain: B2 chain with T53N, L97Q
binding result [5]: no binding
